According to patent US20060159681A1 (FUNCTIONAL NEUROSCIENCE, published 2006):
Blank lines part the entries; values can stand above or below the binder they belong to.

Legend:
[1] = molecular target: Hsp70 (UniProt P0DMV8 1-641); experiment: co-immunoprecipitation from transfected HEK293T lysate
Procedure: (§1) Samples were harvested in lysis-buffer (50 mM Tris-HCl pH 7.4, 150 mM NaCl, 2 mM EDTA, 1% Triton X-100) supplemented with protease inhibitors (Roche). For complete solubilization of the pellet in synphilin ubiquitinylation experiments boiling lysis-buffer with 1% SDS was used. IPs were performed overnight followed by incubation with Protein G sepharose beads (Amersham). PDAs were performed with equimolar amounts of GST- and His-fusion proteins for 1 hr (4° C.). Beads were washed once with lysis-buffer and three times with PBS (pH 7.4).
Therefore, it was tested whether BAG5 may associate with itself by co-transfecting N-terminus GFP-tagged BAG5 (GFP-BAG5) with FLAG-BAG5 in HEK293T cells. […] Indeed, both GFP-BAG5 and GFP-BAG5(DARA) co-immunoprecipitated with FLAG-BAG5(DARA) (FIG. 3E, lane 4 and 6, respectively). It was also confirmed that Hsp70 co-immunoprecipitated with FLAG-BAG5 and not FLAG-BAG5(DARA) (FIG. 3E, lanes 1, 3 and 5 vs. 2, 4 and 6). […] Similar to results from FIG. 3E, GST-BAG5 and GST-BAG5(DARA) interacted with both GFP-BAG5 and GFP-BAG5(DARA), whereas only GST-BAG5 interacted with Hsp70 (FIG. 3F). […] Therefore complexes of BAG5 which contained BAG5(DARA) were unable to bind Hsp70 and inhibited BAG5 activity.

[2] = molecular target: T1, His-Hsp70 (human, UniProt P0DMV8 1-641); experiment: in vitro GST pull-down
T1 construct: Purified from E. coli (pDEST17) for the pull-down assays; also called full-length Hsp70; not shown: N-terminal hexa-histidine tag from a pDEST vector
Procedure: as §1
To further examine the nature of the association between parkin, Hsp70 and BAG5, in vitro pull-down experiments using GST-Hsp70, GST-BAG5, or GST-BAG5(DARA) with recombinant N-terminus His-tagged parkin were used. […] Thus, BAG5 interacted directly with parkin in the absence of Hsp70.

[3] = molecular target: T2, endogenous Hsp70 in human brain lysate (human, UniProt P0DMV8 2-641); experiment: GST pull-down from human brain SNpc lysate
T2 construct: Native protein in tissue lysate, detected with a monoclonal anti-Hsp70 antibody
T2 sequence (P0DMV8 2-641): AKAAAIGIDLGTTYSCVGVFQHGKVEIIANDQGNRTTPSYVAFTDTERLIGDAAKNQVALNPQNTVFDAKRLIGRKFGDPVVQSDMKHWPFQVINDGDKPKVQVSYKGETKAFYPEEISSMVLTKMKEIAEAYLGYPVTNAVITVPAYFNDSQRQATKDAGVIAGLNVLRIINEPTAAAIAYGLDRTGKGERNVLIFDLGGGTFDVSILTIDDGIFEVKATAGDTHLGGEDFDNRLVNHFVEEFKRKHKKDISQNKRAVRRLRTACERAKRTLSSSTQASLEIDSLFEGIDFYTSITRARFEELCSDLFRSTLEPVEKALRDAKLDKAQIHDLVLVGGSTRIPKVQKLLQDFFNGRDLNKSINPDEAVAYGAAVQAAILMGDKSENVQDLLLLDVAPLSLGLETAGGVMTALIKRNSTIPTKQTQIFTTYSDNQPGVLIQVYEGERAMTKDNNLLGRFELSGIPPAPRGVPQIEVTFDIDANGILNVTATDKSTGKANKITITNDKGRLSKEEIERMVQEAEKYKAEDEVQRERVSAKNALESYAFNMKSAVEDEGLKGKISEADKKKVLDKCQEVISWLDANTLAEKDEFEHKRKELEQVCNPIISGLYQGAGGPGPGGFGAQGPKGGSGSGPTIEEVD

Hsp70, sequence (P0DMV8 whole entry, the tested form may be a part): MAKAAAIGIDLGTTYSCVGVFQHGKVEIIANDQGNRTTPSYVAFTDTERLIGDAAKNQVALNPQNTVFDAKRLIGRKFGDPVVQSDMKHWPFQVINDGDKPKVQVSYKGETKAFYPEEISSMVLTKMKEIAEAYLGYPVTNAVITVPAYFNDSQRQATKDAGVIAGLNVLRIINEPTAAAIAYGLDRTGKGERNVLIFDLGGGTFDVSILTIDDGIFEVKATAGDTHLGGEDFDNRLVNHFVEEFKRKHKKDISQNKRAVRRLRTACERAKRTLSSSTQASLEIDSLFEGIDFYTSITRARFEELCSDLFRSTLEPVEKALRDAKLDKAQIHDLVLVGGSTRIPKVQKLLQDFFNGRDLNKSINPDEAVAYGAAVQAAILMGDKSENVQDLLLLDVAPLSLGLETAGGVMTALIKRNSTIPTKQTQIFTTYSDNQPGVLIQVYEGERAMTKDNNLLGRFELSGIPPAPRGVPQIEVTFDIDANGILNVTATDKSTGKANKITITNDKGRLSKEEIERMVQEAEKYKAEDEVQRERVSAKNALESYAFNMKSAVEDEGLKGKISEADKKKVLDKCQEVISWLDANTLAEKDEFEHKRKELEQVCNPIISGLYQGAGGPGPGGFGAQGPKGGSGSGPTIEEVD
T1 sequence (P0DMV8 whole entry): as the sequence (P0DMV8 whole entry, the tested form may be a part) above

binding result [1]: no binding
B1: FLAG-BAG5(DARA) (other, not shown: small tags and cut ends)
chain: MDMGNQHPSISRLQEIQKEVKSVEQQVIGFSGLSDDKNYKKLERILTKQLFEIASVDTEGKGDIQQAAKRAAQETERLLKELEQNANHPHRIEIQNIFEEAQSLVREKIVPFYNGGNCVTDEFEEGIQDIILRLTHVKTGGKISLRKARYHTLTKICAVQEIIEDCMKKQPSLPLSEDAHPSVAKINFVMCEVNKARGVLIALLMGVNNNETCRHLSCVLSGLIADLAALDVCGRTEIRNYAREVVEDINKLLKYLDLEEEADTTKAFDLRQNHSILKIEKVLKRMREIKNELLQAQNPSELYLSSKTELQGLIGQLAEVSLEKNPCIREAARRAVIEVQTLITYIDLKEALEKRKLFACEEHPSHKAVWNVLGNLSEIQGEVLSFDGNRTDKNYIRLEELLTKQLLALAAVDPQGEEKCKAAAKQAVRLAQNILSYLDLKSDEWEY
notes: Expressed by transfection in HEK293T cells

binding result [2]: no binding
binding result [3]: no binding
B2: GST-BAG5(DARA) (other, not shown: a dimerising Fc or GST; large carriers; small tags and cut ends)
chain: B1 chain
notes: also called mutant BAG5(DARA)
